This is an account of results in article doi:10.1101/2022.04.14.487897 (bioRxiv, 2022).

The target of test [1] is mortalin (HSPA9) (UniProt P38646). Kind of test: MST.
The target in test [2] is H26Y cytochrome c (globular structure, high peroxidase activity) (UniProt P00004). Kind of test: enzyme inhibition.
Test [3] has as its target ferrous cytochrome c (Fe2+), horse heart (horse, UniProt P00004 1-105, heme iron ferrous (Fe^2+)). The test is described as follows: enzyme inhibition.
Test [4] concerns the target mortalin (HSPA9) (UniProt P38646 47-679, Alexa 647 dye (NanoTemper) / NT-647 label). The test is described as follows: MST.

Chain of mortalin (HSPA9) (UniProt P38646 47-679, Alexa 647 dye (NanoTemper) / NT-647 label) (P38646 47-679): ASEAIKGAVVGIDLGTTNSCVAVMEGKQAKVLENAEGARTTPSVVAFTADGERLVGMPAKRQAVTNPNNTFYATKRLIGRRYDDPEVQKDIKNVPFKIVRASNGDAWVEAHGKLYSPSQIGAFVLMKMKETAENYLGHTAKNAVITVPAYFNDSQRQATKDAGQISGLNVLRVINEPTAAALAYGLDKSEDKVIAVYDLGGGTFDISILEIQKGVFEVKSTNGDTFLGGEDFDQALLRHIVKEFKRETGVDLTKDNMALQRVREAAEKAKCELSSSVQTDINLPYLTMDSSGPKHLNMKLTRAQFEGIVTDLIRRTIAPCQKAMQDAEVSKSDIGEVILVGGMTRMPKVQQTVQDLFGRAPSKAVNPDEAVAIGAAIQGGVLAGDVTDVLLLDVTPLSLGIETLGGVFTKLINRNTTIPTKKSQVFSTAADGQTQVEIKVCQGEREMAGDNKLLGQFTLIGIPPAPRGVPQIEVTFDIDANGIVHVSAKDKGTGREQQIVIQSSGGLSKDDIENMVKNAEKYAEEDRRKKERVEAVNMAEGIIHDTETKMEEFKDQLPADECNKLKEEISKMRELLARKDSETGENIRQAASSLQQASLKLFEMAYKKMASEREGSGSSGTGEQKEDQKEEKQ
Chain of mortalin (HSPA9) (UniProt P38646) (P38646 47-679): as above
Chain of ferrous cytochrome c (Fe2+), horse heart (P00004 whole entry): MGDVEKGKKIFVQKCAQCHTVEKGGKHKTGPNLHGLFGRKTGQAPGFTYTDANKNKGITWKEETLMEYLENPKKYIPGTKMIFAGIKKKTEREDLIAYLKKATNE

For the molecule “Bcl-2 (from UniProt P10415 1-239) (natural protein)”, in test [1], the Kd was 0.171 µM.

B1: full-length human p66Shc (wildtype) (natural protein, UniProt P29353-1 1-583, looked up)
chain: MDLLPPKPKYNPLRNESLSSLEEGASGSTPPEELPSPSASSLGPILPPLPGDDSPTTLCSFFPRMSNLRLANPAGGRPGSKGEPGRAADDGEGIVGAAMPDSGPLPLLQDMNKLSGGGGRRTRVEGGQLGGEEWTRHGSFVNKPTRGWLHPNDKVMGPGVSYLVRYMGCVEVLQSMRALDFNTRTQVTREAISLVCEAVPGAKGATRRRKPCSRPLSSILGRSNLKFAGMPITLTVSTSSLNLMAADCKQIIANHHMQSISFASGGDPDTAEYVAYVAKDPVNQRACHILECPEGLAQDVISTIGQAFELRFKQYLRNPPKLVTPHDRMAGFDGSAWDEEEEEPPDHQYYNDFPGKEPPLGGVVDMRLREGAAPGAARPTAPNAQTPSHLGATLPVGQPVGGDPEVRKQMPPPPPCPGRELFDDPSYVNVQNLDKARQAVGGAGPPNPAINGSAPRDLFDMKPFEDALRVPPPPQSVSMAEQLRGEPWFHGKLSRREAEALLQLNGDFLVRESTTTPGQYVLTGLQSGQPKHLLLVDPEGVVRTKDHRFESVSHLISYHMDNHLPIISAGSELCLQQPVERKL
modifications: Alexa 647 label (only in the MST with cytochrome c, where p66Shc was the labelled protein)
As to B1, the Ki in test [2] came out at 3.54 µM; in test [3], 1.43 µM. This molecule also registered a Kd in test [4] of 0.858 µM.

For orientation: Kd means the constant that tells how readily two partners part at equilibrium. By Ki is commonly meant a measure of affinity in units of concentration, obtained from inhibition or displacement.
